Results: US5559094A (Eli Lilly and Company, priority 1994, dated 1996)

Columns and labels:
[1] = Near- and far-UV circular dichroism; format: physicochemical; conditions: mean residue ellipticity, variation of 3%
Description: Protein stock solutions were prepared by dissolving a known mass of protein in either 20 mM Tris or 50 mM sodium phosphate and 50 mM sodium chloride, pH 7.8, followed by zinc oxide addition to a final concentration of 0.5 mol Zn per mol of protein monomer. The pH of the solution was readjusted to pH 7.8 as needed. The protein stock concentrations were determined by UV absorbance using an AVIV model 14DS double-beam spectrophotometer. […] All circular dichroism measurements were obtained using an AVIV Model 62DS spectrometer (Lakewood, N.J.) with results reported as mean residue ellipticity (MRE) having units of deg.cm^2.dmol^-1.
All samples were measured by far-UV CD at 23° C. using a 0.01 cm CD cell. The signal at 224 nm was recorded as a function of either m-cresol or KSCN concentration.
To further explore secondary structure, the far-UV CD spectra were collected from 250 nm to 200 nm using a 0.01 cm cuvette. To gain insight into the environment of the aromatic and disulfide amino acids the near-UV CD spectra were collected from 350 to 250 nm using a 0.1 cm cell.

[2] = from NMR / x-ray crystallography literature; cited from earlier work
[3] = α-Helical analysis (CONTIN analysis from the circular dichroism spectra); format: physicochemical
Description: ^1 Determined by CONTIN analysis from the circular dichroism spectra.

[4] = Equilibrium ultracentrifugation (aggregation state); format: physicochemical; conditions: 0.5 mol of Zn per mol of protein; 20 mM Tris pH 7.8; protein 1.5 to 5 mg/ml
Description: Equilibrium ultracentrifugation data was collected at 22° C. at equally spaced radial intervals using a Beckman Model XLA analytical ultracentrifuge Fullterton, Calif. Standard 30 mm and 12 mm centerpieces along with custom-made 3 mm centerpieces all made from charcoal-filled epon were used. Raw data from the chart recorder was converted to concentration versus radius using the internal calibration factors of the scanner. The weight average molecular weight was calculated according to the equation:
MW=RT/(1-Vp)ω^2.1r.1/C.dC/dr
where R is the gas constant, T is the temperature, ω is the rotor speed, r is the radius, C is the concentration, .rho. is the solvent density, and assuming ideal solutions. […] Least squares smoothing methods were used to calculate C and dC/dr.

[5] = injection of an acidic solution; cited from earlier work

Substance	Circular Dichroism, Wavelength 224 nm [1] [deg.cm^2.dmol^-1]	Circular Dichroism, Wavelength 251 nm [1] [deg.cm^2.dmol^-1]	Circular Dichroism, Wavelength 276 nm [1] [deg.cm^2.dmol^-1]	% Helix Theoretical [2] [%]	% Helix Measured [3] [%]	aggregation state (weight average molecular weight) [4]	reduction of insulin absorption rate after injection [5] [%]
Zn + Human Insulin: human insulin sample with Zn [reference compound]	-10892	-121	-305	47			
Zn + asp^B1 gln^B13 Insulin: asp^B1 gln^B13 insulin sample with Zn	-14555	-426	-291		65		
Zn + m-cresol + Human Insulin: human insulin sample with Zn and m-cresol [reference compound]	-13488	-425	-335				
Zn + m-cresol + asp^B1 gln^B13 Insulin: asp^B1 gln^B13 insulin sample with Zn and m-cresol	-14092	-431	-384		64		
Zn-Asp^B1 insulin: Asp^B1 insulin containing 0.5 mol of Zn per mol of protein						hexamer	
gln^B13 analog: literature insulin analog with gln at B13 that forms stable hexamers in the absence of Zn							25
